What was measured:
[1] = molecular target: T1, ROR1 on stably transgenic ROR1-expressing cells MDA-MB-231-ROR1 (UniProt Q01973 30-937, limits assumed); assay: flow cytometry on MDA-MB-231-ROR1 cells
T1 construct: whole, on cells

[2] = molecular target: T2, ROR1 protein (ACROBiosystems, Cat# RO1-H5223) (UniProt Q01973 308-395); assay: ELISA on ROR1 protein, anti-IgG secondary antibody, OD450
T2 construct: Bought protein

[3] = molecular target: T3, ROR1 antigen (UniProt Q01973 30-403, limits assumed); assay: BLI (Octet RED96e), antibody on sensor, ROR1 antigen from 100 nM in 2-fold dilutions
T3 construct: construct not described
T3 sequence (Q01973 30-403 limits assumed): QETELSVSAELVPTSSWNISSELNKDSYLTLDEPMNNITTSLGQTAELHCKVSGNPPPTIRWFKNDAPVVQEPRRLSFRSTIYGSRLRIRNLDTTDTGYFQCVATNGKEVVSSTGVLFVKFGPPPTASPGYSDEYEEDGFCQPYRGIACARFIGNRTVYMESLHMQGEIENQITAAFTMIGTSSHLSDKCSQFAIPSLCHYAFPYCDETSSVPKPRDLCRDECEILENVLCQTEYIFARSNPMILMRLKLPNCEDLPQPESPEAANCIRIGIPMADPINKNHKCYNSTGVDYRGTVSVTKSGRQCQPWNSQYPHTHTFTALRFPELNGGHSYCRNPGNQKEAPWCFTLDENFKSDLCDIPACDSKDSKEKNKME

T1 sequence (Q01973 30-937 limits assumed): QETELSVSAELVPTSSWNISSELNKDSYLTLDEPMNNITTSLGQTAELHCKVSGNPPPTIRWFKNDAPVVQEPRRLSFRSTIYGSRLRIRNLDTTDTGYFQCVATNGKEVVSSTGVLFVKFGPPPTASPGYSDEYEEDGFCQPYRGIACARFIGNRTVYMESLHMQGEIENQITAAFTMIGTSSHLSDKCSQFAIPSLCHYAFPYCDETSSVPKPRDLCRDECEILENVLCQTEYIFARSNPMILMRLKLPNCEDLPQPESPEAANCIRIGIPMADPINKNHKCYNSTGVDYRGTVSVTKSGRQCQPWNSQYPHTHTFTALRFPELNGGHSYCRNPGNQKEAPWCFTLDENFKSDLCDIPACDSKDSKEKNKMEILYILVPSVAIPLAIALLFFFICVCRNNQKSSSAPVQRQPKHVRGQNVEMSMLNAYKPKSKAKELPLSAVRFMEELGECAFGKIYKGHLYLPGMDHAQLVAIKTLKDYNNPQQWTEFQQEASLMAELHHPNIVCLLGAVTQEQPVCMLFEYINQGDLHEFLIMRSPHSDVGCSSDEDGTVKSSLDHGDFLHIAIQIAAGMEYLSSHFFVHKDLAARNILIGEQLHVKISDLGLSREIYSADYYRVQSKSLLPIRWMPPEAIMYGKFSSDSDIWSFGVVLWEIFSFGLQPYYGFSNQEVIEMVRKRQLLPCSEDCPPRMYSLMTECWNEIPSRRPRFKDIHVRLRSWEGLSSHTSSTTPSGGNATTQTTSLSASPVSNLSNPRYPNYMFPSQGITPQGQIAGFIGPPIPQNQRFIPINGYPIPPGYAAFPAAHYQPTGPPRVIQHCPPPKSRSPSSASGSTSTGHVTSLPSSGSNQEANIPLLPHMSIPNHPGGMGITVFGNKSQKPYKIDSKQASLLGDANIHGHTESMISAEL
T2 sequence (Q01973 308-395 limits assumed): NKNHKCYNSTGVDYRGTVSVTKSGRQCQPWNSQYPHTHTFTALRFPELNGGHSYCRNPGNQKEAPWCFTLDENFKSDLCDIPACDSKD

Binder | EC50 [1] [µg/mL] | EC50 [2] [µg/mL] | Kd [3] [nM] | koff [3] [s⁻¹] | kon [3] [M⁻¹ s⁻¹]
humanized antibody hu17-H3L1 (antibody, human IgG1, kappa, L234A L235A, V domains shown) VH: QVTLKESGPTLVKPTQTLTLTCSFSGFSLSTSGMGVAWIRQPPGKALEWLAHIWWDDDKRYNPSLKSRLTITKDTSKNQVVLTMTNMDPVDTATYYCARPQFITTVVAFYWYFDVWGQGTTVTVSS VL: DILLTQSPSSLSVSVGDRVTITCRASENIYSNLAWYQQKPGKAPKLLVYAATNLADGVPSRFSGSGSGTQYTLTISSLQPEDFATYYCQHFWGTPWTFGGGTKLEIKR | 0.107 | 0.0014 | 32.4 | 0.0279 | 859000
humanized antibody hu17-H2L1 (antibody, human IgG1, kappa, L234A L235A, V domains shown) VH: EVTLKESGPTLVKPTQTLTLTCSFSGFSLSTSGMGVAWIRQPPGKALEWLAHIWWDDDKRYNPALKSRLTITKDTSKNQVVLTITNVDPVDTATYYCARPQFITTVVAFYWYFDVWGQGTTVTVSS VL: DILLTQSPSSLSVSVGDRVTITCRASENIYSNLAWYQQKPGKAPKLLVYAATNLADGVPSRFSGSGSGTQYTLTISSLQPEDFATYYCQHFWGTPWTFGGGTKLEIKR | 0.114 | 0.00142 | 22.7 | 0.0185 | 814000
humanized antibody hu17-H4L1 (antibody, human IgG1, kappa, L234A L235A, V domains shown) VH: QVTLKESGPTLVKPTQTLTLTCTFSGFSLSTSGMGVAWIRQPPGKALEWLAHIWWDDDKRYGPSLKSRLTITKDTSKNQVVLTMTNMDPVDTATYYCARPQFITTVVAFYWYFDVWGQGTTVTVSS VL: DILLTQSPSSLSVSVGDRVTITCRASENIYSNLAWYQQKPGKAPKLLVYAATNLADGVPSRFSGSGSGTQYTLTISSLQPEDFATYYCQHFWGTPWTFGGGTKLEIKR | 0.101 | 0.00116 | 20 | 0.0147 | 738000
murine antibody 17-F12-G8-A6 (antibody, V domains shown) VH: EVTLKESGPGILQPSQTLSLTCSFSGFSLSTSGMGVAWIRQPSGKGLEWLAHIWWDDDKRYNPALKSRLTISKDTSSNQVFLKIASVDTADTATYYCARPQFITTVVAFYWYFDVWGAGTTVTVSS VL: DILLTQSPASLSVSMGETVTITCRASENIYSNLAWYQQKQGKSPQLLVYAATNLADGVPSRFSGSGSGTQYSLKINSLQSEDFGSYYCQHFWGTPWTFGGGTKLEIK | 0.0988 | 0.00136 | 14.8 | 0.0105 | 708000

— patent EP4755914A1 (CSPC Megalith Biopharmaceutical Co., Ltd., dated 2025)
